Here are results for seven molecules from patent US20260028400A1 (AIMED BIO, published 2026).

Where a chain is given by its changes, count along the chain named.

Sequences and labels used below:
B1: P015004 (antibody, V domains shown)
VH: EVQLLESGGGLVQPGGSLRLSCAASGFTFSDYAMAWVRQAPGKGLEWVSIIYPGDSETIYSPSFEGRFTISRDNSKNTLYLQMNSLRAEDTAVYYCARDTYWEGYFDLWGQGTLVTVSS
VL: EIVLTQSPGTLSLSPGERATLSCRASQGISNYLAWYQQKPGQAPRLLIYDASNLESGIPDRFSGSGSGTDFTLTISRLEPEDFAVYYCQQYANLPYTFGQGTKVEIK
B2: P015018 (antibody, V domains shown)
VH: EVQLLESGGGLVQPDGSMRLICAASGFTFSSYAKHWVRQAPGKGLEWVSEIYTSGSTNYNPSLKSRFTISRDNSKNTLYLQMNSLRAEDTAVYYCARDTWWEGYFDLWGQGTLVTVSS
VL: B1 VL with G28S, I29V, N31T, N53S, Y91S, A92Y, Y96H
B3: P015042 (antibody, V domains shown)
VH: EVQLLESGGGLVQPGGSLRLSCAASGFTFSDYAMSWVRQAPGKGLEWVSVISSDGGSIYYADSVKGRFTISRDNSKNTLYLQMNSLRAEDTAVYYCAKDRSRDMEVDFDYWGQGTLVTVSS
VL: QSVLTQPPSASGTPGQRVTISCSGSSSNIGSNYVTWYQQLPGTAPKLLIYDSSQRPSGVPDRFSGSKSGTSASLAISGLRSEDEADYYCGTWDYSLSGYVFGGGTKLTVL
B4: P015044 (antibody, V domains shown)
VH: EVQLLESGGGLVQPGGSLRLSCAASGFTFSNYAMHWVRQAPGKGLEWVSIIYPDDDTRYNPSFRGRFTISRDNSKNTLYLQMNSLRAEDTAVYYCARDLLYAGDYWGQGTLVTVSS
VL: QSVLTQPPSASGTPGQRVTISCGGNNIESKAVHWYQQLPGTAPKLLIYANNKRPSGVPDRFSGSKSGTSASLAISGLRSEDEADYYCQSYDSNKVVFGGGTKLTVL
B5: P015012 (antibody, V domains shown)
VH: EVQLLESGGGLVQPGGSLRLSCAASGFTFSGYSMSWVRQAPGKGLEWVSGISYGGSSISYADSVKGRFTISRDNSKNTLYLQMNSLRAEDTAVYYCAKPVRRWARFRLSYDDAMDVWGQGTLVTVSS
VL: B3 VL with S31N, Y33A, T35N, D51A, S52N, Q54H, Y94S
B6: P015042v1 (antibody, V domains shown)
VH: B3 VH
VL: B3 VL with S97N
notes: Tested as complete IgG; Parent of the variants P015042v1-1 to P015042v1-6
B7: P015042v1-6 (antibody, V domains shown)
VH: B3 VH with G55K
VL: B3 VL with S52K, S97N, G98A
notes: Variant of P015042v1, tested as IgG

T1 sequence (Q01973 165-305 limits assumed): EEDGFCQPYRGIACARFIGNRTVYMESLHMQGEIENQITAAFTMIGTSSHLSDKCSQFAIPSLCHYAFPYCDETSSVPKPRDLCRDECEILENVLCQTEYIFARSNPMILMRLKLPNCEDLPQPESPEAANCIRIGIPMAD
T6 sequence (Q01973 30-403 limits assumed): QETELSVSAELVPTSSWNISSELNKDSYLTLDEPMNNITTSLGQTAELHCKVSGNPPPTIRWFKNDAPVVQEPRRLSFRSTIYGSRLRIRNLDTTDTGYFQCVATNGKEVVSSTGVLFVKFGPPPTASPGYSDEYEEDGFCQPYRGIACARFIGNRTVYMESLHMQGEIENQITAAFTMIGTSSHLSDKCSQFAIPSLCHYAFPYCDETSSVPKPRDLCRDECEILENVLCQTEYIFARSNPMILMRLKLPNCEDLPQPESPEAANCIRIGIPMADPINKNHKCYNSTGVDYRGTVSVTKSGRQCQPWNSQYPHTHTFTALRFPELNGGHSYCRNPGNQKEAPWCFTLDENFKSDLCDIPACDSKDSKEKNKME
T5 sequence (Q01973 30-937): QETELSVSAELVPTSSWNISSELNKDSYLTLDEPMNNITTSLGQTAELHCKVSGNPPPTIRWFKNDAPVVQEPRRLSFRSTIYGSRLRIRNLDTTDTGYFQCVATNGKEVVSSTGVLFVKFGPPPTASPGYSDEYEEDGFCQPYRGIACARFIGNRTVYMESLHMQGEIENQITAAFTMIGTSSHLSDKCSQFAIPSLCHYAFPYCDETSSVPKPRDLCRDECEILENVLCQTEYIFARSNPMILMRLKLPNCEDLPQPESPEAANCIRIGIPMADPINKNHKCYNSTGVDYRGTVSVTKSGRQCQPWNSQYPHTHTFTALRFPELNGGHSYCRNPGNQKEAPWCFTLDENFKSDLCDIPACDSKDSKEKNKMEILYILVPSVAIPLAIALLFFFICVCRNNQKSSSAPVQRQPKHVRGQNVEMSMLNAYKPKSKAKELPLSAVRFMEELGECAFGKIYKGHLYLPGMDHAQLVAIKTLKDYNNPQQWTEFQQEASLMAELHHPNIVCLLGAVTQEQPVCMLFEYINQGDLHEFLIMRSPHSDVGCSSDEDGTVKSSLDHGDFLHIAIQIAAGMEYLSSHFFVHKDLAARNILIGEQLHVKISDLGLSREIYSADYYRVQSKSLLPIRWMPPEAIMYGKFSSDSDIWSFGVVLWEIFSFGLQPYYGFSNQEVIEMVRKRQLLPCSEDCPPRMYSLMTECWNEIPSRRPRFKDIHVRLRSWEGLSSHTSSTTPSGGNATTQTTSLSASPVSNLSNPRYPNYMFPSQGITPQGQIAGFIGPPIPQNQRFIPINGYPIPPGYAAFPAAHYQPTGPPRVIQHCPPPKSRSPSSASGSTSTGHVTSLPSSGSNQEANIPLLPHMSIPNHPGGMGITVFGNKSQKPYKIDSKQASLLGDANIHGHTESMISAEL
T3 sequence (Q01973 39-151 limits assumed): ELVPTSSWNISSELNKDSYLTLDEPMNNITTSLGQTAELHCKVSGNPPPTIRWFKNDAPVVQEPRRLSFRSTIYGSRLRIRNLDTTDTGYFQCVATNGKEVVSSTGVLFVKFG
T7 sequence (Q9Z139 30-403 limits assumed): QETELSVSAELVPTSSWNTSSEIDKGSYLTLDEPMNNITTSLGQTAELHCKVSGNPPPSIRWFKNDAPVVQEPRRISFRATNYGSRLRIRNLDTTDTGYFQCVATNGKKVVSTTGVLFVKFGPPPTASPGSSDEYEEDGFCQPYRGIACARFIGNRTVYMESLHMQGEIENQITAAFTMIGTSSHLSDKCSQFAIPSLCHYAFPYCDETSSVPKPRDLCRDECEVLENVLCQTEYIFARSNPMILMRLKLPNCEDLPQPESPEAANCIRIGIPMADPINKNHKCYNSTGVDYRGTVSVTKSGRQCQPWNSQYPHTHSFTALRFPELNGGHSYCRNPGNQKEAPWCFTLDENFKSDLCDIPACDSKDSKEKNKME

The first experiment addresses T1, FZD (human, UniProt Q01973).
T1 construct: frizzled domain, His tag; also called Frizzled domain; human ROR1-frizzled domain
Nature of the experiment: ELISA, IgG on coated domain, OD450. The protocol:
(§1) ELISA was performed to analyze the binding domain using the IgG antibody of the selected clone.
(§2) After washing with PBST and distilled water, binding at room temperature for 1 hour using a goat-derived HRP-conjugated anti-human antibody (Invitrogen, 31482, Goat anti-Human IgG F(ab′)₂ Secondary Antibody, HRP) and then washing again using PBST and distilled water were performed. After color development by adding TMB substrate solution (Thermo Scientific, 34029, 1-Step™ Ultra TMB-ELISA Substrate Solution), the color reaction was stopped with stop solution (Invitrogen, SS04, ELISA Stop Solution), and the absorbance was measured at OD 450 nm. The anti-ROR1 antibody clone binding to each domain was analyzed through ELISA (FIG. 3).
On the technique in general: In an ELISA, binding on a coated surface is turned into a signal by an enzyme label.
As for B1, the binding result was “no binding (tested: 300 nM)”.

On to B2, for which the binding result is “no binding (tested: 300 nM)”.

Regarding B3, the binding result is on record as “no binding (tested: 300 nM)”.

As to B4, the binding result was “no binding (tested: 300 nM)”.

The target in a further experiment is T2, Ig+FZD (human).
T2 construct: Ig-like plus frizzled domains, His tag; also called IF domain; human ROR1-immunoglobulin-frizzled domain
T2 sequence (Q01973 30-305): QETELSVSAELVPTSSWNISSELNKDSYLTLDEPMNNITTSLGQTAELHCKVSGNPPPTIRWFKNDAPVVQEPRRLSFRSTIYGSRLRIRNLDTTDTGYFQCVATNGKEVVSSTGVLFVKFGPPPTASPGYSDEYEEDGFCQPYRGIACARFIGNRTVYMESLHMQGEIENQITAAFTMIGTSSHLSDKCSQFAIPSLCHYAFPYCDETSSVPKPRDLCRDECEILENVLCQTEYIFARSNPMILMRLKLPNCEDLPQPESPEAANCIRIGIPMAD
Nature of the experiment: ELISA, IgG on coated domain, OD450. How it is done:
as §1, §2
For orientation: EC50 (read off the curve) means the midpoint of the concentration-response curve. A high value points to weaker potency. On to B1, for which the concentration giving a half-maximal response (EC50 (read off the curve)) was roughly 3 nM.

For B2, the concentration for a half-maximal effect (EC50 (read off the curve)) is roughly 10 nM.

Take B3: the “EC50 (read off the curve)” value was roughly 0.4 nM.

As to B5, the concentration for a half-maximal effect (EC50 (read off the curve)) is roughly 2 nM.

The next experiment addresses T3, Ig-like (human, UniProt Q01973).
T3 construct: Ig-like domain, His tag; also called Ig-like domain; human ROR1-immunoglobulin domain
As to the kind of experiment: ELISA, IgG on coated domain, OD450. How it is done: as §1, §2
Take B1: the binding result is “no binding (tested: 300 nM)”.

Consider B2, for which the binding result is “no binding (tested: 300 nM)”.

In the case of B3, the concentration for a half-maximal effect (EC50 (read off the curve)) was roughly 7 nM.

B5: the binding result is “no binding (tested: 300 nM)”.

The target in another experiment is T4, FZD+KRD (human, UniProt Q01973).
T4 construct: frizzled plus kringle domains, His tag; also called FK domain; human ROR1-frizzled-kringle domain
T4 sequence (Q01973 165-395 limits assumed): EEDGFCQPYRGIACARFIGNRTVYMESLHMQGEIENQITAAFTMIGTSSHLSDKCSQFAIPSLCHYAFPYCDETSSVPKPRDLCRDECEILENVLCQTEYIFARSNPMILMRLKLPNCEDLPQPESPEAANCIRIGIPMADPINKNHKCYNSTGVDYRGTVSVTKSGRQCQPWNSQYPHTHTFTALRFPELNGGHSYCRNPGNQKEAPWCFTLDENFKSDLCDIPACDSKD
As to the kind of experiment: ELISA, IgG on coated domain, OD450. The protocol:
as §1, §2
As to B1, the binding result was “no binding (tested: 300 nM)”.

In the case of B2, the binding result is reported as “no binding (tested: 300 nM)”.

As to B3, the binding result is on record as “no binding (tested: 300 nM)”.

As to B4, the binding result was “no binding (tested: 300 nM)”.

A further experiment concerns the target T5, ROR1 expressed on cell surface (Jeko-1 cell line, AMB-LC-0003T and AMB-LC-0002T patient-derived lung cancer … (human, UniProt Q01973 30-937)).
T5 construct: whole, on cells; Endogenous ROR1 on human cells; the cell is named in the assay or readout field of each row; also called ROR1 antigen expressed in AMB-LC-0003T patient-derived lung cancer cells; ROR1 antigen expressed in Jeko-1 cell line
Nature of the experiment: flow cytometry on Jeko-1 cells. How it is done: (§3) Before therapeutic use of anti-ROR1 antibodies, it is very important to determine whether the antibody binds to the antigen expressed on the cell surface. The cell binding ability of anti-ROR1 antibodies developed by the present inventors was measured using FACS in Jeko-1 cell line and AMB-LC-0003T patient-derived cells, which were confirmed to have high ROR1 expression. Each cell type was dispensed at 1×10⁵ cells/100 μl FACS buffer per well in a 96-well plate.
(§4) Cell binding ability analysis was performed using anti-ROR1 candidate antibodies P015004, P015042, P015043, P015044, P015042v1 with improved biological and physical properties, and P015042v1-6, one of modified materials thereof. Each antibody was serially diluted 10-fold from 100 nM to 10 nM, 1 nM, 100 pM, 10 pM, and 1 pM and the cells were treated therewith. After reaction at 4° C. for 30 minutes, washing was performed twice. PE-labeled goat anti-human IgG Fc PE (ThermoFisher; 12-4998-82) as a secondary antibody was diluted at a ratio of 1:100 in FACS buffer, and 100 μl thereof was dispensed per well. Reaction again at 4° C. for 30 minutes and washing twice were performed. Finally, 100 μl of FACS buffer was dispensed per well, followed by mixing well with a pipette and then flow cytometry using a NovoCyte flow cytometer (Agilent). Analysis was performed using GraphPad Prism 9.3.1, and EC₅₀ values were obtained using a log (agonist) vs. response-Variable slope nonlinear graph model.
What is called EC50 is the concentration giving half of the maximal effect. Consider B1, for which the EC50 was determined as 8.16 nM.

Turning to B3, the EC50 was 0.081 nM.

B6: the midpoint of the response, the EC50, lay at 0.014 nM.

The molecule B7 registered an EC50 of 0.011 nM.

On to B4, for which the EC50 stood at 0.13 nM.

The next experiment has as its target T6, human ROR1 (human, UniProt Q01973 30-403, limits assumed).
T6 construct: also called human ROR1 protein
Nature of the experiment: SPR (Biacore 3000), human ROR1 on CM5 chip, IgG injected, 1:1 Langmuir. The protocol:
(§5) To more quantitatively analyze the binding ability of the anti-ROR1 antibody to ROR1, SPR (surface plasmon resonance) was performed. A Biacore 3000 device (GE Healthcare) was used. Using the amine coupling method, human ROR1 or mouse ROR1 was diluted with 10 mM sodium acetate, pH 4.5 and immobilized on a CM5 sensor chip (GE Healthcare) at 300 response units (RU). The activated portion remaining on the surface of the sensor chip was deactivated by adding 1 M ethanolamine-HCl (pH 8.5).
(In general: Surface plasmon resonance follows binding to a sensor surface in real time, without labels.)
For orientation: Kd means a measure of binding affinity in units of concentration. A higher Kd goes with lower affinity. A word on the koff: it is a measure of how fast the partners let go of each other. Read a high koff as fast dissociation. The term kon denotes a measure of how fast the partners come together. A higher kon goes with fast association. Turning to B1, the dissociation constant Kd is 0.325 nM, the off-rate constant (koff) worked out at 0.00343 s⁻¹ and the on-rate (kon) is 1.06e+07 M⁻¹ s⁻¹.

B2 came in with a Kd of 0.845 nM, a koff of 0.00249 s⁻¹ and a kon of 2.95e+06 M⁻¹ s⁻¹.

As for B3, the dissociation constant Kd was 0.17 nM, the koff was found to be 0.000239 s⁻¹ and the association rate constant (kon) was 1.41e+06 M⁻¹ s⁻¹.

B5 had a Kd of 0.0789 nM, a dissociation rate constant (koff) of 0.000321 s⁻¹ and an association rate constant (kon) of 4.07e+06 M⁻¹ s⁻¹.

On to B6, for which the Kd was found to be 0.172 nM, the koff worked out at 0.000278 s⁻¹ and the on-rate constant (kon) came to 1.62e+06 M⁻¹ s⁻¹.

In turn, B7 yielded a Kd of 0.0912 nM, a koff of 0.000157 s⁻¹ and a kon of 1.72e+06 M⁻¹ s⁻¹.

In the case of B4, the affinity, expressed as Kd, was 3.08 nM; the off-rate (koff) was 0.00382 s⁻¹; the kon was 1.24e+06 M⁻¹ s⁻¹.

The target in the next experiment is T5, ROR1 expressed on cell surface (Jeko-1 …). Nature of the experiment: flow cytometry on AMB-LC-0003T patient-derived lung cancer cells. How it is done: as §3, §4
In general terms: A flow cytometer gives signals particle by particle.
In turn, B1 returned an EC50 of 4.6 nM.

As to B3, the EC50 was 0.15 nM. Compared with the last molecule, the EC50 is about 31-fold lower.

For the molecule B6, the EC50 is 0.16 nM. This EC50 and that of the molecule before are within 1.5-fold of each other.

B4 gave an EC50 of 1.78 nM. Against the preceding molecule, the EC50 is about 11-fold higher.

Another experiment has as its target T7, mouse ROR1 (mouse, UniProt Q9Z139 30-403, limits assumed).
T7 construct: also called mouse ROR1 protein
Nature of the experiment: SPR (Biacore 3000), mouse ROR1 on CM5 chip, IgG injected, 1:1 Langmuir. How it is done: as §5
For the molecule B1, binding was characterised by a dissociation constant (Kd) of 0.328 nM, the koff turned out to be 0.00269 s⁻¹ and the on-rate constant (kon) was determined as 8.18e+06 M⁻¹ s⁻¹.

For B2, the equilibrium dissociation constant (Kd) came to 83.2 nM, the off-rate (koff) amounted to 0.0782 s⁻¹ and the kon was determined as 940000 M⁻¹ s⁻¹.

Take B3: the Kd was found to be 0.102 nM, the koff was found to be 0.000176 s⁻¹ and the kon was 1.72e+06 M⁻¹ s⁻¹.

B5 showed a Kd of 0.285 nM, a koff of 0.000356 s⁻¹ and a kon of 1.25e+06 M⁻¹ s⁻¹.

Take B6: the equilibrium dissociation constant (Kd) turned out to be 0.175 nM, the koff is 0.00034 s⁻¹ and the kon amounted to 1.94e+06 M⁻¹ s⁻¹.

B7 showed a dissociation constant Kd of 0.802 nM, an off-rate (koff) of 0.0015 s⁻¹ and an association rate constant (kon) of 1.87e+06 M⁻¹ s⁻¹.

As for B4, the Kd was found to be 1.21 nM, the koff was 0.00202 s⁻¹ and the kon worked out at 1.67e+06 M⁻¹ s⁻¹.

The next experiment deals with T7, mouse ROR1. Nature of the experiment: ELISA, IgG on coated mouse ROR1, OD450. How it is done: (§6) A 96-well plate was coated at 4° C. for 16 hours with each of human ROR1 and mouse ROR1 proteins at a concentration of 2 μg/ml and then blocked using […]. […] After washing with PBST and distilled water, binding at room temperature for 1 hour using a goat-derived HRP-conjugated anti-human antibody (Invitrogen, 31482, Goat anti-Human IgG F(ab′)₂ Secondary Antibody, HRP) and then washing again using PBST and distilled water were performed. After color development by adding TMB substrate solution (Thermo Scientific, 34029, 1-Step™ Ultra TMB-ELISA Substrate Solution), the color reaction was stopped with stop solution (Invitrogen, SS04, ELISA Stop Solution), and the absorbance was measured at OD 450 nm. It was confirmed that the anti-ROR1 antibody of the present invention and the modified antibody thereof with improved biological and physical properties […] to human ROR1 and mouse ROR1 (FIG. 2).
On to B7, for which the “EC50 (read off the curve)” value was roughly 1 nM.

Another experiment concerns the target T6, human ROR1. Nature of the experiment: ELISA, IgG on coated human ROR1, OD450. The protocol:
as §6
B2: the “EC50 (read off the curve)” value is roughly 1 nM.

On to B7, for which the “EC50 (read off the curve)” value was roughly 0.5 nM.
